# Results reported in article PMC12443476 (eLife, 2025).
# T1: biotinylated Tom70 (109-600) with N-terminal AVI tag (human, UniProt O94826 109-600, biotin (AVI tag, by co-expressed BirA))
# T1 construct: also called biotin-Tom70; immobilized Tom70
# T1 sequence: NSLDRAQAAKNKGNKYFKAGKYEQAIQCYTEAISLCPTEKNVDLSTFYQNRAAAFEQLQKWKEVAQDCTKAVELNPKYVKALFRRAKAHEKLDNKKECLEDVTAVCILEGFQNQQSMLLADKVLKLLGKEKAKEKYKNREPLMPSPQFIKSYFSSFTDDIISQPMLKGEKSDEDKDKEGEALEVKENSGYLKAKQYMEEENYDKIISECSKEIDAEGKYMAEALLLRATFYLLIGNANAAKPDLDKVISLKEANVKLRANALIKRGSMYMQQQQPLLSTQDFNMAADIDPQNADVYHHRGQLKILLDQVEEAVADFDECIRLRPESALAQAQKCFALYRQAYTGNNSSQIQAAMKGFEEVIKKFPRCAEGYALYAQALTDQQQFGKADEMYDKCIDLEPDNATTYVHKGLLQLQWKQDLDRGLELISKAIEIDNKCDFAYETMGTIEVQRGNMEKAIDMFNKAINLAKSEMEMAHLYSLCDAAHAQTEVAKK
# Target: T1, biotinylated Tom70 (109-600) with …
# Assay: SPR
# Details: both partners purified
binder,measurement,value
IILRLGSPLSLNMARKALNSLEDKAFQ [Orf9b T60A peptide],binding result,binds
